Data taken from the supplement of paper PMC11780869.

Tested on: Bacillus subtilis
Assay: cleaved RNA product abundance (RNA/gDNA barcode ratio) relative to median wild-type variant (ratio to wild type); higher = more accumulation of the downstream cleavage product
Conditions: cleavage site: cggR-gapA (positions -7 to +36 mutated)
How it was run: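 Cleaved product abundance for each construct is its RNA-to-gDNA barcode ratio, scaled to the median construct carrying the unmutated site. Cleaved RNA was isolated on a gel, reverse transcribed and barcode-sequenced, with genomic DNA barcodes sequenced alongside and UMIs collapsed. The reporters were truncated aprE or tetM mRNAs with barcoded, mutagenized RNase Y cleavage-site windows integrated into the B. subtilis chromosome, and cultures grew in LB at 37°C from OD600 0.0003 to 0.3.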

[1] = experiment (reporter, strain, medium): exp 4a: truncated aprE reporter, strain BJT201 with 2% xylose (RNase J1 expressed)
[2] = experiment (reporter, strain, medium): exp 2b: truncated aprE reporter, strain BJT200
[3] = experiment (reporter, strain, medium): exp 6: tetM reporter, strain 168

Sequence | cleaved RNA product abundance [1] | cleaved RNA product abundance [2] | cleaved RNA product abundance [3]
ACAGACGAAGGAGCCGCAAAGAAGTTATTAAAGGATGTATAATCCCTCAATATAAATATCTCTCACTTATTTAAA | 0.177 | – | –
ACAGACGAAGGAGCCGCAAAGAAGTTATTAAAGGATTAATAATCCCTCAATATAAATATCTCTCACTTATTTAAA | 0.205 | 0.154 | –
ACAGACGAAGGAGCCGCAAAGAAGTTATTAAAGGCTGAATAATCCCTCAATATAAATATCTCTCACTTATTTAAA | 0.0571 | 0.0927 | –
ACAGACGAAGGAGCCGCAAAGAAGTTATTAAAGGGATGAATAATCCCTCAATATAAATATCTCTCACTTATTTAA | 0.35 | 0.283 | –
ACAGACGAAGGAGCCGCAAAGAAGTTATTAAAGGGTGAATAATCCCTCAATATAAATATCTCTCACTTATTTAAA | 0.202 | – | –
ACAGACGAAGGAGCCGCAAAGAAGTTATTAAAGGTTGAATAATCCCTCAATATAAATATCTCTCACTTATTTAAA | 0.0853 | – | –
ACAGACGAAGGAGCCGCAAAGAAGTTATTAAAGTATGAATAAACCCTCAATATAAATATCTCTCACTTATTTAAA | – | 0.102 | –
ACAGACGAAGGAGCCGCAAAGAAGTTATTAAAGTATGAATAATCCCTCAATATAAATATCTCTCACTTATTTAAA | 0.124 | 0.0922 | –
ACAGACGAAGGAGCCGCAAAGAAGTTATTAAATGATGAATAATCCATCAATATAAATATCTCTCACTTATTTAAA | 0.162 | – | –
ACAGACGAAGGAGCCGCAAAGAAGTTATTAAATGATGAATAATCCCTCAATATAAATATCTCTCACTTATTTAAA | 0.1 | 0.0939 | –
ACAGACGAAGGAGCCGCAAAGAAGTTATTAAATGATGAATAATCCCTCAATATATATATCTCTCACTTATTTAAA | 0.13 | – | –
ACAGACGAAGGAGCCGCAAAGAAGTTATTAACAGATGAATAATCCCTCAATATAAATATCTCTCACTTATTTAAA | 0.0984 | 0.0822 | –
ACAGACGAAGGAGCCGCAAAGAAGTTATTAACCGATGAATAATCCCTCAATATAAATATCTCTCACTTATTTAAA | 0.0751 | 0.0926 | –
ACAGACGAAGGAGCCGCAAAGAAGTTATTAACGAATGAATAATCCCTCAATATAAATATCTCTCACTTATTTAAA | 0.0881 | 0.0836 | –
ACAGACGAAGGAGCCGCAAAGAAGTTATTAACGAATTAATAATCCCTCAATATAAATATCTCTCACTTATTTAAA | 0.0842 | – | –
ACAGACGAAGGAGCCGCAAAGAAGTTATTAACGCATGAATAATCCCTCAATATAAATATCTCTCACTTATTTAAA | 0.0743 | – | –
ACAGACGAAGGAGCCGCAAAGAAGTTATTAACGGAAGAATAATCCCTCAATATAAATATCTCTCACTTATTTAAA | 0.152 | – | –
ACAGACGAAGGAGCCGCAAAGAAGTTATTAACGGACGAATAATCCCTCAATATAAATATCTCTCACTTATTTAAA | 0.0823 | 0.0519 | –
ACAGACGAAGGAGCCGCAAAGAAGTTATTAACGGAGGAATAATCCCTCAATATAAATATCTCTCACTTATTTAAA | 0.171 | – | –
ACAGACGAAGGAGCCGCAAAGAAGTTATTAACGGATAAATAATCCCTCAATATAAATATCTCTCACTTATTTAAA | 0.188 | 0.103 | –

Sequence | cleaved RNA product abundance [1] | cleaved RNA product abundance [2] | cleaved RNA product abundance [3]
ACAGACGAAGGAGCCGCAAAGAAGTTATTAACGGATCAATAATCCCTCAATATAAATATCTCTCACTTATTTAAA | 0.104 | 0.0668 | –
ACAGACGAAGGAGCCGCAAAGAAGTTATTAACGGATGAAAAATCCCTCAATATAAATATCTCTCACTTATTTAAA | 0.133 | 0.104 | –
ACAGACGAAGGAGCCGCAAAGAAGTTATTAACGGATGAACAATCCCTCAATATAAATATCTCTCACTTATTTAAA | – | 0.0917 | –
ACAGACGAAGGAGCCGCAAAGAAGTTATTAACGGATGAAGAATCCCTCAATATAAATATCTCTCACTTATTTAAA | 0.17 | – | –
ACAGACGAAGGAGCCGCAAAGAAGTTATTAACGGATGAATAAACCCTCAATATAAATATCTCTCACTTATTTAAA | 0.12 | 0.0962 | –
ACAGACGAAGGAGCCGCAAAGAAGTTATTAACGGATGAATAACCCCTCAATATAAATATCTCTCACTTATTTAAA | 0.0802 | – | –
ACAGACGAAGGAGCCGCAAAGAAGTTATTAACGGATGAATAATACCTCAATATAAATATCTCTCACTTATTTAAA | 0.136 | 0.0908 | –
ACAGACGAAGGAGCCGCAAAGAAGTTATTAACGGATGAATAATCACTCAATATAAATATCTCTCACTTATTTAAA | 0.106 | 0.0895 | –
ACAGACGAAGGAGCCGCAAAGAAGTTATTAACGGATGAATAATCCATCAATATAAATATCTCTCACTTATTTAAA | 0.233 | 0.138 | –
ACAGACGAAGGAGCCGCAAAGAAGTTATTAACGGATGAATAATCCCACAATATAAATATCTCTCACTTATTTAAA | 0.133 | – | –
ACAGACGAAGGAGCCGCAAAGAAGTTATTAACGGATGAATAATCCCCCAATATAAATATCTCTCACTTATTTAAA | 0.173 | – | –
ACAGACGAAGGAGCCGCAAAGAAGTTATTAACGGATGAATAATCCCGCAATATAAATATCTCTCACTTATTTAAA | 0.392 | – | –
ACAGACGAAGGAGCCGCAAAGAAGTTATTAACGGATGAATAATCCCTAAATATAAATATCTCTCACTTATTTAAA | 0.225 | – | 0.194
ACAGACGAAGGAGCCGCAAAGAAGTTATTAACGGATGAATAATCCCTCAAAATAAATATCTCTCACTTATTTAAA | 0.158 | 0.105 | –
ACAGACGAAGGAGCCGCAAAGAAGTTATTAACGGATGAATAATCCCTCAACATAAATATCTCTCACTTATTTAAA | 0.172 | – | –
ACAGACGAAGGAGCCGCAAAGAAGTTATTAACGGATGAATAATCCCTCAATAAAAATATCTCTCACTTATTTAAA | 0.08 | – | –
ACAGACGAAGGAGCCGCAAAGAAGTTATTAACGGATGAATAATCCCTCAATACAAATATCTCTCACTTATTTAAA | 0.0789 | – | –
ACAGACGAAGGAGCCGCAAAGAAGTTATTAACGGATGAATAATCCCTCAATATAAAAATCTCTCACTTATTTAAA | 0.116 | 0.156 | –
ACAGACGAAGGAGCCGCAAAGAAGTTATTAACGGATGAATAATCCCTCAATATAAATATCTCTCACTTATTAAAG | 0.172 | – | –
ACAGACGAAGGAGCCGCAAAGAAGTTATTAACGGATGAATAATCCCTCAATATAAATATCTCTCACTTATTTAAA | 0.177 | 0.133 | 0.195

Sequence | cleaved RNA product abundance [1] | cleaved RNA product abundance [2] | cleaved RNA product abundance [3]
ACAGACGAAGGAGCCGCAAAGAAGTTATTAACGGATGAATAATCCCTCAATATAAATCTCTCTCACTTATTTAAA | – | 0.108 | –
ACAGACGAAGGAGCCGCAAAGAAGTTATTAACGGATGAATAATCCCTCAATATAAATGTCTCTCACTTATTTAAA | 0.0543 | – | –
ACAGACGAAGGAGCCGCAAAGAAGTTATTAACGGATGAATAATCCCTCAATATACATATCTCTCACTTATTTAAA | 0.231 | – | –
ACAGACGAAGGAGCCGCAAAGAAGTTATTAACGGATGAATAATCCCTCAATATAGATATCTCTCACTTATTTAAA | 0.158 | – | –
ACAGACGAAGGAGCCGCAAAGAAGTTATTAACGGATGAATAATCCCTCAATATATATATCTCTCACTTATTTAAA | 0.152 | 0.158 | –
ACAGACGAAGGAGCCGCAAAGAAGTTATTAACGGATGAATAATCCCTCAATATTAATATCTCTCACTTATTTAAA | 0.0699 | 0.0877 | –
ACAGACGAAGGAGCCGCAAAGAAGTTATTAACGGATGAATAATCCCTCAATCTAAATATCTCTCACTTATTTAAA | 0.102 | – | –
ACAGACGAAGGAGCCGCAAAGAAGTTATTAACGGATGAATAATCCCTCATTATAAATATCTCTCACTTATTTAAA | 0.141 | 0.128 | –
ACAGACGAAGGAGCCGCAAAGAAGTTATTAACGGATGAATAATCCCTCCATATAAATATCTCTCACTTATTTAAA | 0.129 | – | –
ACAGACGAAGGAGCCGCAAAGAAGTTATTAACGGATGAATAATCCCTCTATATAAATATCTCTCACTTATTTAAA | 0.133 | – | –
ACAGACGAAGGAGCCGCAAAGAAGTTATTAACGGATGAATAATCCCTGAATATAAATATCTCTCACTTATTTAAA | 0.107 | – | –
ACAGACGAAGGAGCCGCAAAGAAGTTATTAACGGATGAATAATCCCTTAATATAAATATCTCTCACTTATTTAAA | 0.671 | 0.98 | –
ACAGACGAAGGAGCCGCAAAGAAGTTATTAACGGATGAATAATCCTTCAATATAAATATCTCTCACTTATTTAAA | 0.223 | – | –
ACAGACGAAGGAGCCGCAAAGAAGTTATTAACGGATGAATAATCTCTCAATATAAATATCTCTCACTTATTTAAA | 0.183 | 0.0813 | –
ACAGACGAAGGAGCCGCAAAGAAGTTATTAACGGATGAATAATTCCTCAATATAAATATCTCTCACTTATTTAAA | 0.152 | – | –
ACAGACGAAGGAGCCGCAAAGAAGTTATTAACGGATGAATACTCCCTCAATATAAATATCTCTCACTTATTTAAA | 0.133 | – | –
ACAGACGAAGGAGCCGCAAAGAAGTTATTAACGGATGAATAGTCCCTCAATATAAATATCTCTCACTTATTTAAA | 0.174 | – | –
ACAGACGAAGGAGCCGCAAAGAAGTTATTAACGGATGAATATTCCCTCAATATAAATATCTCTCACTTATTTAAA | 0.138 | – | –
ACAGACGAAGGAGCCGCAAAGAAGTTATTAACGGATGAATTATCCCTCAATATAAATATCTCTCACTTATTTAAA | 0.179 | 0.12 | –
